Experimental data from the nanobody polyreactivity screen of Harvey et al. (2022).

experiment: yeast display, Sf9 membrane polyspecificity reagent, FACS + sequencing; frameworks hold sequencing errors
How it was run: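 Synthetic nanobody libraries on Saccharomyces cerevisiae BJ5465 were galactose-induced for 36–48 hours, stained 1 hour at 4 °C with 10% biotinylated, detergent-solubilized Sf9 membrane reagent and enriched on streptavidin microbeads. FACS then separated cells into low and high (top ~1%) gates by anti-HA (expression) and streptavidin (reagent binding) fluorescence. Genes were colony-PCR amplified, MiSeq 2 × 250 sequenced and CDR-length filtered. A clone's polyreactivity label is that of its gate of origin.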

Sequence	polyreactivity (PSR sort gate)
QVQLVESGGGLVQAGGSLRLSCAASGSTFKQYAMGWYSQAPGKERELVAAISLSGSRTYYADSVKVRFTISRDNAKNTVYLQMKSLIPVDTAVYYCAAELRSSAGWLYDYWGQGTQVTVSS	high polyreactivity
QVQLVESGGGLVQAGGSLRLSCAASGSTFKRNAMGWYRQAPGKERELVAAISWRGTSTYYADSVKGRFTISRDNAKNTVYLQMNSLKPEDTAVYYCAADRGSSVRYGYWGQGTQVTVSS	high polyreactivity
QVQLVESGGGLVQAGGSLRLSCAASGSTFKRNVMGWYRQAPGKERELVAAISRSTTSTYYADSVKGRFTISRDNAKNTVYLQMNSLKPEDTAVYYCATPHRYRVDYWGQGTQVTVSS	high polyreactivity
QVQLVESGGGLVQAGGSLRLSCAASGSTFKRYAMGWYRQAPGKEMELVAAISTRGSTYYADSVKGRFTISRDNAKNTVYLQMNRLKPEETAVYYCNADVGAWAWYTRYDYWGQGTQVTVSS	low polyreactivity
QVQLVESGGGLVQAGGSLRLSCAASGSTFKRYAMGWYRQAPGKERELVADISRGVRTYYADSVKGRFTISRDNAKNTVYLQMNSLKPEDTAVYYCATKYHRNTYEYEYWGQGTQVTVSS	high polyreactivity
QVQLVESGGGLVQAGGSLRLSCAASGSTFKRYAMGWYRQAPGKERELVASISSGGSTNYADSVKGRFTISRDNAKNTVYLQMNSLKPEDTAVYYCAVSYRSFRYYWERYYSWGQGTQVTVSS	high polyreactivity
QVQLVESGGGLVQAGGSLRLSCAASGSTFKRYDMGGYRQAPGKECEFVAGISSRGSRTYYADSVTGRFTISRDNAKNSVYFKMNILKPEDSAVYYCAVSGNHVSPPYGFWGQGTQVNVSS	high polyreactivity
QVQLVESGGGLVQAGGSLRLSCAASGSTFKSYAMGWYRQAPGKERELVAAINWSGGSTYYADSVKGRFTISRDNAKNTVYLQMTSLKPEDTAVYYCNALYAVRSYDSWGQGTQVTVSS	high polyreactivity
QVQLVESGGGLVQAGGSLRLSCAASGSTFKSYTMGWYRQAPGKERELVAAITSSGRTNYADSVKGRFTISRDNAKNTVYLQMNSLKPEDTAVYYCAARWYYYPLLYDYWGQGTQVTVSS	low polyreactivity
QVQLVESGGGLVQAGGSLRLSCAASGSTFKTYAMGWYRQAPGKEREFVAAINWRGTSTYYADSVKGRFTISRDNAKNTVYLQMNSLKPEDTAVYYCAAQRYGYGYQWYDHWGQGTQVTVSS	high polyreactivity
QVQLVESGGGLVQAGGSLRLSCAASGSTFKTYSMGWYRQAPGKERELVAAISGNGGSTYYADSVKGRFTISRDNAKNTVYLQMNILIPEDTAVYYCAAKRRRHFSRGYEYWGQGSQVTVSS	high polyreactivity
QVQLVESGGGLVQAGGSLRLSCAASGSTFKVYAMGWYRQAPGKEMELDAAISRSGGRTYYADSVKGRFTISRDNAKNTVYLQMNSLKPEDTAVYYCNRDYTYSQGHYSGSYDYWGQGTQVTVSS	high polyreactivity
QVQLVESGGGLVQAGGSLRLSCAASGSTFKVYAMGWYRQAPGKERELVAVISGGGRTNYADSVKGRFTISRDNAKNTVYLQMNSLKPEDTAVYYCAALGPYGSARRKYGYWGQGTQVTVSS	high polyreactivity
QVQLVESGGGLVQAGGSLRLSCAASGSTFKVYAMGWYRQAPGKESELVATISKSGSTYADSVKGRFTISRDNAKNTVYLQMNSLKPEDTAVYYCARVKYSGVVYKYDYWGQGTQVTVSS	high polyreactivity
QVQLVESGGGLVQAGGSLRLSCAASGSTFKWYAMGLYRQAPGKERELVAAIDSRGGSTYYADSVKGRFTISRDNAKNTVFLQMISLKPEDTAVYYCNIYPHYSFQSHNYWGQGTQVTVSS	high polyreactivity
QVQLVESGGGLVQAGGSLRLSCAASGSTFKYNAMGWYRQAPGKERELVARISWSGGSTYYADSVKGRFTISRDNAKNSVYLQMNSLKPEDTAVYYCAARSWWRGYSFYYWGQGTQVTVSS	high polyreactivity
QVQLVESGGGLVQAGGSLRLSCAASGSTFKYYAMGWYRQAPGKERELVARISIRGGSTYYADSVKGRFTISRDNAKNTVYLQMNSLKPEDTAVYYCAAVGYFGGYRYYYWGQGTQVTVSS	high polyreactivity
QVQLVESGGGLVQAGGSLRLSCAASGSTFKYYAMGWYRQAPGKERELVATITWSGTSTNYADSVKGRFTISRDNAKHTVYLQMHSLKPEDTAVYYCAARSKRRNYDYWGQGTQVTVSS	high polyreactivity
QVQLVESGGGLVQAGGSLRLSCAASGSTFKYYAMVWYRQAPGKERELVAAISRSGGRTYYADSVKGRFTISRDNAKNTVYLQMNSLKPEDTAVSLCNAVVARVNVRGTPAFDYWGQGTQVTVSS	high polyreactivity
QVQLVESGGGLVQAGGSLRLSCAASGSTFKYYGMGWYRQAPGKERELVAAITSGGSTYDADSVKGRFTISRDNAKTTVYLQRNSLKPEDTAVYYCNTQYYLYYPADYDYWGQGTQVTVSS	low polyreactivity
QVQLVESGGGLVQAGGSLRLSCAASGSTFLDYAMGWYRQAPGQERELVAAITSVGGTYADSVKGRFTISRDKAKNTVYLQKNSLKPEDTAGYYCAADADFWYYVVHRGSTFDYSGQGTQVTVSS	low polyreactivity

Sequence	polyreactivity (PSR sort gate)
QVQLVESGGGLVQAGGSLRLSCAASGSTFLDYTMGWYRHAPGKERELVAVIYYRAGSTYYADSVKGRFTISRDNAKNTVYLQMNSLKPEDTAVYYCNADYYNFWRRRRYLWYESWGQGTQVTVSS	low polyreactivity
QVQLVESGGGLVQAGGSLRLSCAASGSTFLGYTMGWYRQAPGKERELVAAISRRGSSTYYADSVKGRFTISRDNAKNTVYLQMNSLKPEDTAVYYCAAYATSFRDGYWGQGTQVTVSS	high polyreactivity
QVQLVESGGGLVQAGGSLRLSCAASGSTFLHYAMGWYRQAPGKEREFTYYADSVKGRFTISRDNAKNTVYLHMNSLNPEDTAVYYCNAGPYWSPYGDDFGYWGQGTQVTVSS	low polyreactivity
QVQLVESGGGLVQAGGSLRLSCAASGSTFLKNAMGWSRQAPGKERELVAAISYSTTRTYYADSVKGRFTISRDNAKNTVYLQMNSLKPEDTAVYYCNKASYWGSGFDYWGQGTQVTVSS	low polyreactivity
QVQLVESGGGLVQAGGSLRLSCAASGSTFLLNTMGWYRQAPGKERELVAAISSITGDTYYADSVKGRFTISRDNAKNTVYLQMNSLNPEDTAVYYCAAYLSETRPYLYDYWGQGTQVTVSS	low polyreactivity
QVQLVESGGGLVQAGGSLRLSCAASGSTFLLYDMGWYRQAPGKERELVAAITWSGGSTYYADSVKGRFTISRDNAKNTVYLQMNSLKPEDTAVYYCAADSLGDRYYYWGQGTQVTVSS	low polyreactivity
QVQLVESGGGLVQAGGSLRLSCAASGSTFLNYAMGWYRQAPGKERELVAAISGRGGRTYYADSVKGRFTISRDNAKNTVYLLMNSLKPEDTAVYYCAARKWVSYTSYDYWGQGTQVTVSS	high polyreactivity
QVQLVESGGGLVQAGGSLRLSCAASGSTFLPNAMGWYRQAPGKERELVAAISYRGGGTFYADSVKGRFTISRDNAKNTVYLQMNSLKPEDTAVYYCADDWSWFDNFDYWGQGTQVTVSS	low polyreactivity
QVQLVESGGGLVQAGGSLRLSCAASGSTFLRNAMGWYRQAPGKERELVAAISWSAGSTYYADSVKGRFTISRDNAKNTVYLQMNSLKPEDTAVYYCAVDKYVFVSYSFYFEYDYWGQGTQVTVSS	low polyreactivity
QVQLVESGGGLVQAGGSLRLSCAASGSTFLRYAMGWYRQAPGKERELVAAISVSGGSTYYADSVKGRFTISRDNAKNTVYLQMNCLKPEDTAVYYCAAVYKRLQPYGYWGQGTQVTVSS	high polyreactivity
QVQLVESGGGLVQAGGSLRLSCAASGSTFLRYAMGWYRQAPGTERELVAALSYSGGSTYYADSVKGRFTISRDTAKKTVSLQMNSLKPEDTAVYYCNAGVFANDNGGRLDQFTWEYEYWGQGTQVTVSS	low polyreactivity
QVQLVESGGGLVQAGGSLRLSCAASGSTFLRYTMGWYRQAPGKARELVAAITRSGGSTYYADSVKGRFTISRDTAKNTVYLQMNSLKPEDTAVYYCAKRYRVAYGYWGQGTQVTVSS	high polyreactivity
QVQLVESGGGLVQAGGSLRLSCAASGSTFLSNAMGWYRQAPGKERELVASINWIGGSTRYADSVKGRFTISRDNAKNTVYLQMNSLKPEDTAVYYCAVELWWKWPFYYWGQGTQVTVSS	high polyreactivity
QVQLVESGGGLVQAGGSLRLSCAASGSTFLSYAMGRYRQAPGKERELVAAITGSGGNTYYADSVKGRFTISRDNAKNSVYLQMNSLKPEDTAVYYCAADTSYWYDYYIDYVGYYYWGQGTQVTVSS	high polyreactivity
QVQLVESGGGLVQAGGSLRLSCAASGSTFLSYAMGWYRQAPGKEREMVAAISYSAGSTYYADSVKGRFTISRDNAKNTVYLQMNSLKPEDTAVYYCGAVQLVPGYVDSNDYYWGQGTQVTVSS	low polyreactivity
QVQLVESGGGLVQAGGSLRLSCAASGSTFLSYVMGWYRQAPGKERELVAAISGITGSTYYADSVKGRFTLSRDNAKNTVYLQMNSLKPQDTAVYYWAKVYGYNRLFYYRYDYWGQGTQVTVSS	high polyreactivity
QVQLVESGGGLVQAGGSLRLSCAASGSTFLSYVMGWYRQAPGKERELVAAITGTGGRTYYADSVKGRFTISRDNAKNTVYLQMNSLKPEDSAVYYCTAYRKHGYDYWGQGTQVTVSS	high polyreactivity
QVQLVESGGGLVQAGGSLRLSCAASGSTFLTNDMGWYRQAHGKERELVAVITDGDTTYADSVKGRFTISRDNAKNTVYLQMNSLKPEDTAVYYCAADENYWSAGYDYWGQGTQVTVSS	low polyreactivity
QVQLVESGGGLVQAGGSLRLSCAASGSTFLTNVMGWYRQAPGKERELVAAITIGGSTNYADSVKGRFTISRDNAKNTVYLQMNSLKPEDTAVYYCATDIRRKPRYVDYEYWGQGTQVTVSS	low polyreactivity
QVQLVESGGGLVQAGGSLRLSCAASGSTFLVYAMGWYRQAPGKERELVAAIRSGGRTYYADSVKGRFTISRDNAKNTVYLQMNSLKPEDTAVYYCAADVLLRYGYRGYDYWGQGTQVTVSS	low polyreactivity
